In test [1] the target is T1, human platelet glycoprotein I(b)α (GPIbα) on human platelets (human, UniProt P07359 17-652).
T1 construct: whole, on cells; also called human GPIbα
Description: flow cytometry on washed platelets, 2.5-5 µg/mL, FITC anti-human-Fab detection. The method, then: (§1) Specificity. Human and mouse platelet-rich plasma (PRP) was prepared by centrifugation at 300 g for 7 min, and was washed by transferring 200 µL PRP into 10 mL PBS followed with 800 g centrifugation for 10 min. The supernatant was then removed and platelets were re-suspended in 200 µL PBS. Washed platelets (10 µL) were incubated with the different antibodies (2.5-5 µg/mL) in a 200 µL system at room temperature for 30 min, and detected by FITC labeled anti-human-Fab antibody. These eight selected humanized Fabs H001-H008, the scFv and the chimeric protein all bound to both human and wild-type mouse platelets, but not GPIbα deficient mouse platelets, indicating the specificity of the humanized Fabs to platelet GPIbα (FIGS. 4 and 19).
A general note: Flow cytometry measures light scatter and fluorescence of single cells or particles in a stream.

The target in test [2] is T2, mouse platelet glycoprotein I(b)α (GPIbα) on wild-type mouse platelets (mouse, UniProt O35930 17-734).
T2 construct: whole, on cells; also called mouse GPIbα
T2 sequence (looked up): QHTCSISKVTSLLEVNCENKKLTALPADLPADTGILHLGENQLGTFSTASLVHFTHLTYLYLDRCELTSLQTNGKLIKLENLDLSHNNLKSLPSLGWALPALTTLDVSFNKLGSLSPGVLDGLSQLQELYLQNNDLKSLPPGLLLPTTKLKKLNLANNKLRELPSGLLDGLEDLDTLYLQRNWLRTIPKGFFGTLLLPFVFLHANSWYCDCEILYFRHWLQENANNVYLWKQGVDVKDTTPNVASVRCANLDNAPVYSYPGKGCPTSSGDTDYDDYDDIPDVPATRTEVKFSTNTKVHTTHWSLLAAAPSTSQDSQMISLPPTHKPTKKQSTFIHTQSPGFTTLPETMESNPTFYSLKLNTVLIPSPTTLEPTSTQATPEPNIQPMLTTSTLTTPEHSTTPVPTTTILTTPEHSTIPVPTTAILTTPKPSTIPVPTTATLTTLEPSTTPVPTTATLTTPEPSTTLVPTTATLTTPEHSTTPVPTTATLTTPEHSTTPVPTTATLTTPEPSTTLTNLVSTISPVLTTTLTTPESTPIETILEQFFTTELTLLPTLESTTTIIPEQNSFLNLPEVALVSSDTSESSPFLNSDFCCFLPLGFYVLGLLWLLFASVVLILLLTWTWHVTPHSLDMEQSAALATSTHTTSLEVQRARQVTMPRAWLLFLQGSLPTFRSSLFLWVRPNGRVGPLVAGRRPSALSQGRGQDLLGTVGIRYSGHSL
The test can be described thus: flow cytometry, washed wild-type mouse platelets, Fab 5 µg/mL, FITC anti-human-Fab detection. The method, then:
as §1

Test [3] has as its target T3, dog platelet glycoprotein I(b)α (GPIbα) on dog platelets (dog, UniProt Q28256 17-677).
T3 construct: whole, on cells; also called dog GPIbα
T3 sequence (looked up): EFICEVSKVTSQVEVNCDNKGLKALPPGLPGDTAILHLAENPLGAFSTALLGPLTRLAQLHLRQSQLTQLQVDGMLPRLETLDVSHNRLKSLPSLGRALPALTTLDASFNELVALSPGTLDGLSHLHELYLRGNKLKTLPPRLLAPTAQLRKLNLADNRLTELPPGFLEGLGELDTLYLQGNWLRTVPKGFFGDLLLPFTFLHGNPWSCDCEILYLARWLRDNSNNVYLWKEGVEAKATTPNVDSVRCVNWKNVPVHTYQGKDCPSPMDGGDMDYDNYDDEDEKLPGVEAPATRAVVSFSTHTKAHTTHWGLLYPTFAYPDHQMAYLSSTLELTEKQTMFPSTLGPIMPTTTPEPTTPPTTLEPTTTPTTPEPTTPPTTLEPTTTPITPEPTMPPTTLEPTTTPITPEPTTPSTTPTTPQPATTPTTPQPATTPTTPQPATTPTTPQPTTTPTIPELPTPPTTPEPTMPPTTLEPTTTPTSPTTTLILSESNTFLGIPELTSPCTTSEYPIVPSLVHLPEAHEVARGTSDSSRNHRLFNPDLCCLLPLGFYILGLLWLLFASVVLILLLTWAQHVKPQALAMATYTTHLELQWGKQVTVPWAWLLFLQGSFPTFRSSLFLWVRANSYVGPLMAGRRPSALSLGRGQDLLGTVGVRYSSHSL
The test can be described thus: flow cytometry, dog platelets from PRP, FITC anti-human kappa chain detection. The method, then:
(§2) Platelets (2×10^5) from mouse, dog, human, rat and rabbit PRP were transferred into 200 µL PBS containing a serial concentration of the Fabs H001 or H002 at 50, 16.7, 5.6, 1.8, 0.6, 0.2 nM (for mouse and dog), at 200, 67, 22, 7.4, 2.5, 0.8, 0.3, 0.1 nM (for human and rat) and at 500, 100, 20, 4, 0.8 nM (for rabbit). After a 30 min incubation, a detection antibody (FITC-labeled anti-human Kappa chain, 1:200) was added and incubated in darkness for 15 min. Flow cytometry was performed using the BD LSR Fortessa™ X-20. H001 and H002 also bound to rat, dog and rabbit platelets (FIG. 5).

In test [4] the target is T4, rat platelet glycoprotein I(b)α (GPIbα) on rat platelets (rat).
T4 construct: whole, on cells; also called rat GPIbα
The test can be described thus: flow cytometry, rat platelets from PRP, FITC anti-human kappa chain detection. As for the experimental part:
as §2

Test [5] addresses T5, recombinant hexa-histidine tagged GPIbα.
T5 construct: Held on a Ni-NTA SPR sensor by its hexa-histidine tag; also called recombinant GPIbα; immobilized GPIbα
Description: SPR, His-tagged GPIbα held on Ni-NTA sensor, kinetics binding model. The method, then: (§3) The biosensors were rinsed with copious amounts of anhydrous ethanol followed by 16 hour incubation in a solution of 1 mM mercaptopropionic acid in dimethylformamide. Following the incubation, SPR biosensors were rinsed with copious amounts of dimethylformamide followed by anhydrous ethanol and finally ddH₂O. The biosensors were then incubated in 40 mM 1-Ethyl-3-(3-dimethylaminopropyl) carbodiimide and 20 mM N-Hydroxysuccinimide dissolved in ddH₂O for 1 hour. Sensors were then rinsed with copious amounts of ddH₂O and then incubated with 100 mM Nα,Nα-Bis(carboxymethyl)-L-lysine hydrate for 4 hour. Following the incubation, the biosensing surfaces were rinsed with ddH2O. The final step before SPR experiments was to expose the functionalized biosensing surfaces with 100 mM NiCl₂ for 1 hour.
(§4) The SPR experiments were performed on a Biosensing Instrument 4000 SPR. The functionalized biosensors were loaded onto the instrument and the biosensor was equilibrated with running buffer (10 mM tris(hydroxymethyl) aminomethane, 140 mM NaCl, 20 mM Imidazole pH=7.4) at a flow rate of 40 μL/min. For binding measurements 25 μL of 500 nM hexa-histidine tagged GPIbα was injected over the biosensing surface immobilizing the GPIbα to the SPR sensor surface. […] The resulting data was analyzed using the instrument included SPR analysis software. […]
(In general: Surface plasmon resonance follows binding to a sensor surface in real time, without labels.)

Test [6] has the same target. The test can be described thus: SPR, size of shifts against concentration, one site binding model. The method, then: The SPR experiments were performed on a Biosensing Instrument 4000 SPR. The functionalized biosensors were loaded onto the instrument and the biosensor was equilibrated with running buffer (10 mM tris(hydroxymethyl) aminomethane, 140 mM NaCl, 20 mM Imidazole pH=7.4) at a flow rate of 40 μL/min. For binding measurements 25 μL of 500 nM hexa-histidine tagged GPIbα was injected over the biosensing surface immobilizing the GPIbα to the SPR sensor surface. The baseline was allowed to equilibrate followed by injection of 25 μL of the desired concentration of ligand (either Fab H001 or control). Biosensing surfaces were regenerated between ligand injections by injection of 100 μL of 500 mM imidazole in running buffer, followed by 100 μL of 100 mM NiCl_2. The resulting data was analyzed using the instrument included SPR analysis software.
GPIbα immobilized SPR biosensors were exposed to 500, 100, 50 and 10 nM of Fab H001 antibody and 100 nM control antibody (PSI E1, an antibody against GPIIbIIIa). […] In contrast the Fab H001 antibody clearly bound GPIbα producing clear SPR shifts with only partial dissociation after the end of the injection (FIG. 7A).

For test [7] the target is unchanged. The test can be described thus: SPR steady-state response against H001 concentration, His-tagged GPIbα immobilised. The method, then:
as §3, §4

In test [8] the target is T1, human platelet glycoprotein I(b)α …. Description: flow cytometry, human platelets from PRP, FITC anti-human kappa chain detection. The method, then: as §2
Test [9] deals with T2, mouse platelet glycoprotein I(b)α …. Description: flow cytometry, mouse platelets from PRP, FITC anti-human kappa chain detection. The method, then:
as §2

Substitutions are numbered along the chain they refer to.

T1 sequence (P07359 17-652): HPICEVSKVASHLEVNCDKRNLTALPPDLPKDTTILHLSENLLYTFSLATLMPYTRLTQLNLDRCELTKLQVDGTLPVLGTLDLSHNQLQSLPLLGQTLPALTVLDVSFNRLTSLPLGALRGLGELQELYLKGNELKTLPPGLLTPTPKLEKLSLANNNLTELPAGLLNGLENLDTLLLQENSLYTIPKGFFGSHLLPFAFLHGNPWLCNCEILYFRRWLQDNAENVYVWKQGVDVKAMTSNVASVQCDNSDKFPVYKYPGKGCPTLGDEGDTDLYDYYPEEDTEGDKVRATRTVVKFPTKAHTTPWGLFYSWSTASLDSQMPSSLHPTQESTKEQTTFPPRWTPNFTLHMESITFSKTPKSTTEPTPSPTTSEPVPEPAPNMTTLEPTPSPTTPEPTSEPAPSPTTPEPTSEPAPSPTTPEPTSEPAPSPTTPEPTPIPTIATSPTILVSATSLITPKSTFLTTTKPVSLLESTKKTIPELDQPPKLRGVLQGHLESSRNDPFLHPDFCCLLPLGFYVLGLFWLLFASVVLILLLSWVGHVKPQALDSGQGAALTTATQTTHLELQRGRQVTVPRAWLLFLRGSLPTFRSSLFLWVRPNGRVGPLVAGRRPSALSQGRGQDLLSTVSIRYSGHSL
T5 sequence (P07359 17-652): as above

B1: humanized Fab H004 (Fab, V domains shown)
VH: EVQLVESGGGLVQPGGSLRLSCAASGFTFSSFAMSWVRQAPGKGLEWVSSITSAGTPYYPDSVLGRFTISRDNSKNTLYLQMNSLRAEDTAVYYCAKSRGYEDYFDYWGQGTLVTVSS
VL: DIQMTQSPSSLSASVGDRVTITCKSSQSLLNSRNQKNYLAWYQQKPGKAPKLLIYFTSTRESGVPSRFSGSGSGTDFTLTISSLQPEDFATYYCQQHYSSPWTFGQGTKVEIKR
notes: Fab with human IgG1 CH1 and human kappa constant region; also called VH3 + VL2
Regarding B1, the binding result in test [1] and in test [2] was “binds” throughout.

B2: humanized Fab H005 (Fab, V domains shown)
VH: B1 VH
VL: DIVMTQSPLSLPVTPGEPASISCKSSQSLLNSRNQKNYLAWYLQKPGQSPQLLIYFTSTRESGVPDRFSGSGSGTDFTLKISRVEAEDVGVYYCQQHYSSPWTFGQGTKVEIKR
notes: Fab with human IgG1 CH1 and human kappa constant region; also called VH3 + VL3
Consider B2, for which the binding result in test [1] and in test [2] was “binds” each time.

B3: humanized Fab H003 (Fab, V domains shown)
VH: B1 VH with Q13K, S74A, T77S, K97R, L113T, S118R
VL: DIVMTQSPDSLAVSLGERATINCKSSQSLLNSRNQKNYLAWYQQKPGQPPKLLIYFTSTRESGVPDRFSGSGSGTDFTLTISSLQAEDVAVYYCQQHYSSPWTFGGGTKLEIKR
notes: Fab with human IgG1 CH1 and human kappa constant region; also called VH2 + VL1
Regarding B3, the binding result in test [1] and in test [2] was “binds” each time.

B4: humanized Fab H006 (Fab, V domains shown)
VH: B1 VH with E1Q, L11V, G16R, S49A, K97R
VL: B3 VL
notes: Fab with human IgG1 CH1 and human kappa constant region; also called VH4 + VL1
Regarding B4, the binding result in test [1] and in test [2] was “binds” throughout.

B5: humanized Fab H001 (Fab, V domains shown)
VH: B1 VH with E1Q, Q13K, V37I, S74A, T77S, K97R
VL: B1 VL
notes: Fab with human IgG1 CH1 and human kappa constant region; also called Fab H001 antibody; VH1 + VL2
For B5, the EC50 (read off the curve) (commonly the concentration giving half of the maximal effect) in test [3] is approximately 3 nM; in test [4], approximately 3 nM; in [7], approximately 80 nM; in [8], approximately 10 nM. Besides, the figures for the Kd in [5] and in [6] were 4.4 nM and 8 nM, respectively. Besides, the koff (commonly the rate constant with which the complex falls apart) in test [5] stood at 0.11 s⁻¹. Moreover, the binding result in [2] is “binds”.

B6: humanized Fab H002 (Fab, V domains shown)
VH: B1 VH with E1Q, Q13K, V37I, S74A, T77S, K97R
VL: B2 VL
notes: Fab with human IgG1 CH1 and human kappa constant region; also called Fab H002 antibody; VH1 + VL3
Consider B6, for which the binding result in test [9] and in [8] was “binds” each time. Besides, the entries for the “EC50 (read off the curve)” value in [3] and in [4] were approximately 2 nM and approximately 3 nM, respectively.

B7: humanized Fab H008 (Fab, V domains shown)
VH: B1 VH with E1Q, L11V, G16R, S49A, K97R
VL: B2 VL
notes: Fab with human IgG1 CH1 and human kappa constant region; also called VH4 + VL3
Regarding B7, the binding result in test [1] and in test [2] was “binds” each time.

B8: humanized Fab H007 (Fab, V domains shown)
VH: B1 VH with E1Q, L11V, G16R, S49A, K97R
VL: B1 VL
notes: Fab with human IgG1 CH1 and human kappa constant region; also called VH4 + VL2
Turning to B8, the binding result in [1] and in test [2] was “binds” throughout.
